B1: H1H1913N (antibody, human IgG1, V domains shown)
VH: QVQLQQWGAGLLKPSETLSLTCAVYGGSFSGDYWSWIRQSPGKGLEWIGEINHSGSTNYNPSLKSRVTISIDTSKNQFSLKLSSVTAADTAVYYCARGGGDYYYGMDVWGLGTTVTVSS
VL: AIQMTQSPSSLSASVGDRVTITCRASQGIGNDLGWYQQKPGKAPNLLIYATSSLQSGVPSRFSGSGSGTDFTLTISSLQPEDFATYYCLQDYNYPWTFGQGTKVEIK
notes: Human IgG1 Fc; also called H3M1913N (same variable domains)
B2: H1H1915N (antibody, human IgG1, V domains shown)
VH: QVQLVESGGGVVQPGRSLRLSCAASGFTFSAYAMHWVRQAPGKGLEWVAVIWYDGSNKNYADSVKGRFTVSRDNSKNTLYLEMNSLRAEDTAVYYCARDLMVGVTNYWGQGTLVTVST
VL: DVVMTQSPLSLPVALGQPASISCRSSQSLVYTDGNTYLNWFHQRPGQSPRRLIYKVSNRDSGVPDRFTGSGSGTDFTLKISRVEAEDVGVFYCMQGSHWPPYTFGQGTKLEIK
notes: Human IgG1 Fc; also called H2M1915N (same variable domains)
B3: H1H1911N (antibody, human IgG1, V domains shown)
VH: QVQLVESGGGVVQPGRSLRLSCAASGFTFSRYGIHWVRQAPGKGLEWVAVIWHDGSNKYYADSVKGRFTISRDNSKNTLYLQMTSLRAEDTAVYYCARDGLEIRDHYYYGMDVWGQGTTVTVSS
VL: DIQMTQSPSTLSASVGDRVTITCRASQSTSSWLAWYQQKPGKAPTLLIYKASSLESGVPSKFSGSGSGTEFTLTISSLQPDDFATYYCQQYNRYSRTFGQGTKVEIK
notes: Human IgG1 Fc; also called H2M1911N (same variable domains)
B4: H1H1912N (antibody, human IgG1, V domains shown)
VH: EVQLVESGGGLVQPGRSLRLSCAASGFTFDDYAMHWVRQVPGKGLEWVSGISWNSGSIGYADSVKGRFTISRDNAKNSLYLQMNSLRAEDTALYYCAKDIHDYGKDYYYYYGMDVWGQGTTVTVSS
VL: EIALTQSPGTLSLSPGERATLSCRASQSVSSTYLAWYQQKPGQAPRLLIYGASSRATGIPDRFSGSGSGTDFTLTISRLEPEDFAVYYCQQYDSSPITFGQGTRLEIK
notes: Human IgG1 Fc; also called H2M1912N (same variable domains)
B5: H1H2194P (antibody, human IgG1, V domains shown)
VH: QVQLVQSGAEVKKPGASVKVSCKASGYTFTSYDINWVRQATGQGLEWMGWINPNSDYTGYVQKFQGRVTMTRDTSISTAYMELSSLRSEDTAVYYCATSRWSEHFHHWGQGTLVTVSS
VL: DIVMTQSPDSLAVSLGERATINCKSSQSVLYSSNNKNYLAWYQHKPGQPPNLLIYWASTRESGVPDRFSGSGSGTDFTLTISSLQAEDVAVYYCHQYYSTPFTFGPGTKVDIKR
notes: Human IgG1 Fc; also called H1H2194N
B6: H1H1863N2(Fuc+) (antibody, human IgG1, V domains shown)
VH: EVQLVESGGGLVQPGGSLRLSCAASGFPFSSYDMHWVRQATGKGLEWVSAIGTAGATYYPGSVKGRFTISRENAKNSLYLQMNSLRAGDTAVYYCARGDYVWGTYRPLFDYWGQGTLVTVSS
VL: DIQLTQSPSFLSASVGDRVTITCWASQGINNYLAWYQQKPGKAPKLLIYAASTLQTGVPSRFSGSGSGTEFTLTISSLQPEDFATYYCQQLNSYPLTFGGGTKVEIK
notes: the numerical identifier ties them; also called H1H863N2; H1H863N2(Fuc+)

How the values were obtained:
[1] = target: T1, full-length hEGFRvIII on cells (human, UniProt P00533 298-1210); test: FACS, HEK293/EGFRvIII cells, directly labeled antibody
T1 construct: Expressed from vectors in HEK293, U87, B16F10.9, U251 and MMT 060562 cells; also called HEK293/EGFRvIII; HEK293/hEGFRvIII
Procedure: (§1) To determine the specificity of the anti-EGFRvIII mAbs, their binding to HEK293, HEK293 cells expressing EGFRvIII (HEK293/EGFRvIII) and A431 cells, was analyzed by fluorescence activated cell sorting (FACS). HEK293/EGFRvIII cells were prepared by transfecting HEK293 cells with neomycin resistant DNA vectors constitutively expressing full-length hEGFRvIII (SEQ ID NO:147) using LIPOFECTAMINE™ 2000 transfection reagent (INVITROGEN™). At two days post-transfection, cells were placed under G418 selection for approximately two weeks. Populations positively expressing EGFRvIII were isolated via fluorescence activated cell sorting (FACS). The HEK293 cells expressing ˜3×10⁶ copies of EGFRvIII per cell were used in the experiment. […] In another set of experiment, anti-EGFRvIII antibodies were directly conjugated via their lysine residues with the fluorescent dye, ALEXA FLUOR® 488 Dye (INVITROGEN™), thereby eliminating the step using the secondary antibody. […] Controls I, II, III, IV and V are described above. MFI: Mean Fluorescence Intensity.

EGFRvIII-mmh [2] = target: T2, EGFRvIII-mmh (human, UniProt P00533 298-647, limits assumed); test: SPR 37C, mAb-capture
T2 construct: Soluble monomeric protein; also called hEGFRvIII-mmh; hEGFRvIII.mmh

EGFRvIII-mFc [3] = target: T3, EGFRvIII-mFc (human); test: SPR 37C, mAb-capture
T3 construct: Soluble dimeric protein

EGFR-mmh [4] = target: T4, EGFR-mmh (human, UniProt P00533 25-647, limits assumed); test: ELISA; ELISA, 25 C, EGFR-mmh coated on the plate
T4 construct: Soluble monomeric protein; also called hEGFR-mmh
Excerpt: (§2) To further characterize anti-hEGFRvIII mAbs, their binding specificity was examined by ELISA. […] Also, coated was an irrelevant peptide (control peptide) with or without biotin at its N-terminal. […] The plates were then washed and bound anti-EGFRvIII mAbs were detected with anti-human Fc antibodies conjugated with horse-radish peroxidase (HRP). […] Data analysis used a sigmoidal dose-response model within PRISM™ software.

EGFRvIII-mmh [5] = target: T2, EGFRvIII-mmh; test: ELISA
Excerpt: as §2

EGFRvIII-mFc [6] = target: T3, EGFRvIII-mFc; test: SPR 37C, receptor-capture
Procedure: (§3) Measurements were conducted on a T100 BIACORE™ instrument. […] In the receptor-capture format, either EGFRvIII-mFc or EGFR-mFc, was captured on the BIACORE™ chip and the respective antibodies flowed over. Kinetic association (kₐ) and dissociation (kd) rate constants were determined by processing and fitting the data to a 1:1 binding model using Scrubber 2.0 curve fitting software. Binding dissociation equilibrium constants (KD) and dissociative half-lives (t_{1/2}) were calculated from the kinetic rate constants as: KD (M)=kd/kₐ; and t₁₁₂ (min)=ln2/(60*kd).

EGFR-mFc [7] = target: T5, EGFR-mFc (human); test: SPR 37C, receptor-capture; 37 C, receptor-capture format (EGFR-mFc captured)
T5 construct: Soluble dimeric protein
Procedure: as §3

EGFRvIII-mFc [8] = target: T3, EGFRvIII-mFc; test: SPR 37C, receptor-capture; 37 C, receptor-capture format (EGFRvIII-mFc captured)
Procedure: as §3

[9] = target: T6, wild-type human EGFR on cells (human, UniProt P00533 25-1210); test: FACS, A431 cells, directly labeled antibody
T6 construct: Stands for transfected HEK293/hEGFRwt, endogenous EGFR of A431 and of parental HEK293 cells, and human EGFR of hEGFR mice; the cell line is named under assay; also called EGFRwt; hEGFRwt
Procedure: as §1

EGFRvIII-mmh [10] = target: T2, EGFRvIII-mmh; test: ELISA; ELISA, 25 C, EGFRvIII-mmh coated on the plate
Excerpt: as §2

[11] = target: T6, wild-type human EGFR on cells; test: FACS, A431 cells, PE secondary antibody
Procedure: as §1

[12] = target: T1, full-length hEGFRvIII on cells; test: cell-based or functional assay
[13] = target: T1, full-length hEGFRvIII on cells; test: FACS, HEK293/EGFRvIII cells, PE secondary antibody
Procedure: as §1

EGFR-mmh [14] = target: T4, EGFR-mmh; test: SPR 37C, mAb-capture
EGFR-mFc [15] = target: T5, EGFR-mFc; test: SPR 37C, mAb-capture
EGFR-mmh [16] = target: T4, EGFR-mmh; test: ELISA
Excerpt: as §2

EGFR-mFc [17] = target: T5, EGFR-mFc; test: SPR 37C, receptor-capture
Procedure: as §3

Binder | HEK293/EGFRvIII MFI [1] [MFI] | Ratio (EGFRvIII MFI/parental MFI) [1] | Kd (EGFRvIII-mmh [2]) [nM] | T½ (EGFRvIII-mmh [2]) [min] | koff (EGFRvIII-mmh [2]) [s⁻¹] | kon (EGFRvIII-mmh [2]) [M⁻¹ s⁻¹] | Kd (EGFRvIII-mFc [3]) [nM] | T½ (EGFRvIII-mFc [3]) [min] | koff (EGFRvIII-mFc [3]) [s⁻¹] | kon (EGFRvIII-mFc [3]) [M⁻¹ s⁻¹] | EC50 (EGFR-mmh [4]) [nM] | EC50 (EGFRvIII-mmh [5]) [nM] | Kd (EGFRvIII-mFc [6]) [nM] | T½ (EGFRvIII-mFc [6]) [h] | koff (EGFRvIII-mFc [6]) [s⁻¹] | kon (EGFRvIII-mFc [6]) [M⁻¹ s⁻¹] | Kd (EGFR-mFc [7]) [nM] | koff (EGFR-mFc [7]) [s⁻¹] | kon (EGFR-mFc [7]) [M⁻¹ s⁻¹] | A431 MFI [9] [MFI] | other results
B1 | 239000 | 49.8 | 7030 | 10 | 0.00114 | 163 | 22.6 | 37 | 0.000316 | 14000 | 2.55 | 2.14 | ≤ 0.0159 | 192 | ≤ 1e-06 | 63000 | ≤ 0.169 | ≤ 1e-06 | 5930 | – | –
B2 | 73400 | 21.2 | – | – | – | – | – | – | – | – | – | – | – | – | – | – | 184 | 0.00801 | 43500 | 8440 | Kd (EGFRvIII-mFc [8]): 3.2 nM; T½ (EGFRvIII-mFc [8]): 35 min; koff (EGFRvIII-mFc [8]): 0.000328 s⁻¹; kon (EGFRvIII-mFc [8]): 100000 M⁻¹ s⁻¹; Fold Above Background [9]: 1.2 fold; T½ (EGFR-mFc [7]): 1.4 min; EC50 (EGFRvIII-mmh [10]): 0.167 nM
B3 | 55100 | 15.3 | – | – | – | – | – | – | – | – | 9.06 | – | – | – | – | – | 224 | 0.00174 | 7770 | 16000 | A431 MFI [11]: 3140 MFI; Fold Above Background [11]: 2.2 fold; Fluorescent Intensity of vesicles 4° C., Mean [12]: 29800; Fluorescent Intensity of vesicles 37° C., Mean [12]: 280000; Kd (EGFRvIII-mFc [8]): 19.5 nM; T½ (EGFRvIII-mFc [8]): 18 min; koff (EGFRvIII-mFc [8]): 0.000643 s⁻¹; kon (EGFRvIII-mFc [8]): 32900 M⁻¹ s⁻¹; Fold Above Background [9]: 2.4 fold; HEK293/EGFRvIII MFI [13]: 107000 MFI; Ratio (EGFRvIII MFI/parental MFI) [13]: 59.1; T½ (EGFR-mFc [7]): 7 min; EC50 (EGFRvIII-mmh [10]): 0.0748 nM
B4 | 122000 | 32.7 | 899 | 0.7 | 0.0164 | 18300 | 47.7 | 12 | 0.000971 | 20400 | 0.0405 | 0.0118 | 5.4 | 0.367 | 0.000537 | 99000 | 22.9 | 0.000914 | 39900 | 14300 | Fluorescent Intensity of vesicles 4° C., Mean [12]: 4910; Fluorescent Intensity of vesicles 37° C., Mean [12]: 370000; Fold Above Background [9]: 2.1 fold; T½ (EGFR-mFc [7]): 13 min
B5 | – | – | 17 | 8 | 0.00137 | 81000 | 2.33 | 52 | 0.000222 | 95400 | – | 0.0032 | 0.394 | 2.62 | 7.38e-05 | 188000 | – | – | – | – | A431 MFI [11]: 2290 MFI; Fold Above Background [11]: 1.6 fold; Kd (EGFR-mmh [14]): 12.6 nM; T½ (EGFR-mmh [14]): 12 min; koff (EGFR-mmh [14]): 0.00096 s⁻¹; kon (EGFR-mmh [14]): 76000 M⁻¹ s⁻¹; Kd (EGFR-mFc [15]): 2.43 nM; T½ (EGFR-mFc [15]): 58 min; koff (EGFR-mFc [15]): 0.000199 s⁻¹; kon (EGFR-mFc [15]): 81000 M⁻¹ s⁻¹; EC50 (EGFR-mmh [16]): 0.0037 nM; Kd (EGFR-mFc [17]): 0.38 nM; T½ (EGFR-mFc [17]): 163 min; koff (EGFR-mFc [17]): 7.07e-05 s⁻¹; kon (EGFR-mFc [17]): 187000 M⁻¹ s⁻¹; HEK293/EGFRvIII MFI [13]: 18600 MFI; Ratio (EGFRvIII MFI/parental MFI) [13]: 18.9
B6 | – | – | – | – | – | – | – | 14 | – | – | – | – | – | 0.933 | – | – | – | – | – | – | –

From US20160304615A1 (Regeneron, published 2016)
